Measured values as given in patent US20230220081A1 (published 2023).

Molecular target: 21480B
Assay: Octet

B1: IL2Rbeta (receptor)
chain: AVNGTSQFTCFYNSRANISCVWSQDGALQDTSCQVHAWPDRRRWNQTCELLPVSQASWACNLILGAPDSQKLTTVDIVTLRVLCREGVRWRVMAIQDFKPFENLRLMAPISLQVVHVETHRCNISWEISQASHYFERHLEFEARTLSPGHTWEEAPLLTLKQKQEWICLETLTPDTQYEFQVRVKPLQGEFTTWSPWSQPLAFRTKPAALGKD
  Kd: 8.1 nM
